From paper PMC13066097

Target: anti-PcrV scFv conjugated with the mouse IgG1 hinge, CH2 and CH3 domains, scFv-m166-mFc (recombinant protein) (mouse)
Assay: non-reducing SDS-PAGE with immunoblot

- stoichiometry N: 2
Substance: anti-PcrV scFv conjugated with the mouse IgG1 hinge, CH2 and CH3 domains, scFv-m166-mFc (recombinant protein) (Fc fusion)
